This is an account of results in paper PMC6021170.

Data set [1] is described as follows: western blot of cell lysates, HEK293. Particulars: glycan lost; control: PT-WT. For orientation: In western blotting, separated proteins are transferred to a membrane and probed.
Data set [2] in a line: western blot of conditioned medium, HEK293. Particulars: glycan lost; control: PT-WT.
Data set [3] can be described thus: ELISA of cell lysates, endogenous prothrombin, HepG2. The settings on record: glycan changed form; control: untreated HepG2 cells.
Data set [4] in a line: ELISA of conditioned medium, endogenous prothrombin, HepG2. Particulars: glycan changed form; control: untreated HepG2 cells. (In general: ELISA stands for enzyme-linked immunosorbent assay.)
A short description of data set [5]: confocal co-staining after 4 hr CHX. The settings on record: glycan lost; control: WT corin.
The nature of data set [6]: confocal co-staining with or without CHX. Particulars: glycan lost; control: WT corin.
The nature of data set [7]: cycloheximide chase, lysate western blot. Particulars: glycan lost; control: WT corin.
Data set [8] in a line: western blot of cell lysates, zymogen bands. Particulars: glycan lost.
Data set [9] can be described thus: western blot, cleaved Corin-p band in lysate. Particulars: glycan lost; control: WT corin.
A short description of data set [10]: Endo H sensitive/resistant band ratio after 4 hr CHX. Particulars: glycan lost; control: WT corin.
A short description of data set [11]: cell surface biotinylation, western blot densitometry. The settings on record: glycan lost.
A short description of data set [12]: western blot of cell lysates. The settings on record: glycan lost.
Data set [13] can be described thus: western blot of conditioned medium. The settings on record: glycan lost.
Data set [14] deals with enteropeptidase mutant EK-4Q (human) (UniProt P00734). In words: co-IP; lysates of transfected HEK293 cells immunoprecipitated with anti-V5 antibody and protein A-Sepharose; co-precipitated endogenous chaperones detected by western blotting and densitometry; cells without or with DNJ (2 mM, 37°C, 24-48 hr).
For data set [15], the target named is prothrombin mutant PT-N416Q (human) (UniProt P98073). Described as above.
Setting [16] is: control: sR801A (soluble corin).

Sequence of UniProt P98073 (P98073 whole entry, stated change not applied): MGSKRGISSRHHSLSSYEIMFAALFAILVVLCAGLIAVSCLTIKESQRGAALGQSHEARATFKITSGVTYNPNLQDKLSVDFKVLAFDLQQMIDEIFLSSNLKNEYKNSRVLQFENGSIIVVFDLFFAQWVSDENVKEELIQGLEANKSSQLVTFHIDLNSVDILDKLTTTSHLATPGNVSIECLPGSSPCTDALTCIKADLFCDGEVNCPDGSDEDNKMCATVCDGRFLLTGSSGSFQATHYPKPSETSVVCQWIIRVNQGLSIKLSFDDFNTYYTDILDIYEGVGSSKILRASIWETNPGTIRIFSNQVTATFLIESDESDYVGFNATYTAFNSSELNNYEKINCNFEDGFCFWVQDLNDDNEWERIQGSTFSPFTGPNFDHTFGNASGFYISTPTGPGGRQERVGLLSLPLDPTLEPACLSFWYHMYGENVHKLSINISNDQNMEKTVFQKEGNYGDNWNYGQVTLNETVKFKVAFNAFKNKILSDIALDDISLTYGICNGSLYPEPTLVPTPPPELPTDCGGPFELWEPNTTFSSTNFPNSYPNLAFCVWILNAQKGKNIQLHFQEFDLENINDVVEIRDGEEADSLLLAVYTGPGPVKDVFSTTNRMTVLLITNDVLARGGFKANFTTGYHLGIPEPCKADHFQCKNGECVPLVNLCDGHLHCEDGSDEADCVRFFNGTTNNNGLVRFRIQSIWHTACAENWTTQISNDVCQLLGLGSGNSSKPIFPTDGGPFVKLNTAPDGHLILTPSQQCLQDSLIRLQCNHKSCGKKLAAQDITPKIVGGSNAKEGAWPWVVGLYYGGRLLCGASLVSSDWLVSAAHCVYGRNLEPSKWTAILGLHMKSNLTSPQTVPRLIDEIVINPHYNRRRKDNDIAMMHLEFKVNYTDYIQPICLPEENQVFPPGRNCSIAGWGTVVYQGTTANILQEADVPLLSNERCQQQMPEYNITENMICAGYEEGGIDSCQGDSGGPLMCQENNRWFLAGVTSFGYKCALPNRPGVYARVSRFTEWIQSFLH

With prothrombin (PT): PT-N416Q, in data set [1], the expression_or_secretion result is given as “no change”. In data set [2], the “expression_or_secretion, percent_of_wt” value is “decreases”.
For the molecule prothrombin (PT): DNJ, in data set [3], the expression_or_secretion entry is given as “no change”. In addition, the “expression_or_secretion, percent_of_wt” value in data set [4] is reported as “decreases”.

B1: corin: N1022Q (protein)
parent chain: MKQSPALAPEERCRRAGSPKPVLRADDNNMGNGCSQKLATANLLRFLLLVLIPCICALVLLLVILLSYVGTLQKVYFKSNGSEPLVTDGEIQGSDVILTNTIYNQSTVVSTAHPDQHVPAWTTDASLPGDQSHRNTSACMNITHSQCQMLPYHATLTPLLSVVRNMEMEKFLKFFTYLHRLSCYQHIMLFGCTLAFPECIIDGDDSHGLLPCRSFCEAAKEGCESVLGMVNYSWPDFLRCSQFRNQTESSNVSRICFSPQQENGKQLLCGRGENFLCASGICIPGKLQCNGYNDCDDWSDEAHCNCSENLFHCHTGKCLNYSLVCDGYDDCGDLSDEQNCDCNPTTEHRCGDGRCIAMEWVCDGDHDCVDKSDEVNCSCHSQGLVECRNGQCIPSTFQCDGDEDCKDGSDEENCSVIQTSCQEGDQRCLYNPCLDSCGGSSLCDPNNSLNNCSQCEPITLELCMNLPYNSTSYPNYFGHRTQKEASISWESSLFPALVQTNCYKYLMFFSCTILVPKCDVNTGEHIPPCRALCEHSKERCESVLGIVGLQWPEDTDCSQFPEENSDNQTCLMPDEYVEECSPSHFKCRSGQCVLASRRCDGQADCDDDSDEENCGCKERDLWECPSNKQCLKHTVICDGFPDCPDYMDEKNCSFCQDDELECANHACVSRDLWCDGEADCSDSSDEWDCVTLSINVNSSSFLMVHRAATEHHVCADGWQEILSQLACKQMGLGEPSVTKLIQEQEKEPRWLTLHSNWESLNGTTLHELLVNGQSCESRSKISLLCTKQDCGRRPAARMNKRILGGRTSRPGRWPWQCSLQSEPSGHICGCVLIAKKWVLTVAHCFEGRENAAVWKVVLGINNLDHPSVFMQTRFVKTIILHPRYSRAVVDYDISIVELSEDISETGYVRPVCLPNPEQWLEPDTYCYITGWGHMGNKMPFKLQEGEVRIISLEHCQSYFDMKTITTRMICAGYESGTVDSCMGDSGGPLVCEKPGGRWTLFGLTSWGSVCFSKVLGPGVYSNVSYFVEWIKRQIYIQTFLLN
For the molecule B1, the “localisation_or_trafficking, other: Pearson's correlation coefficient” value in [5] was “increases, 0.35 ± 0.05 vs 0.15 ± 0.06”. Moreover, the localisation_or_trafficking entry is “no change” in data set [6] and “changes” in data set [10]. Further, the “degradation_or_half_life, half_life” value in data set [7] was “increases, 6.1 ± 0.3 vs 3.8 ± 0.4”. In addition, the expression_or_secretion result in data set [8] (control: WT corin) was “no change”. For the same molecule, the “other: proteolytic processing” value in data set [9] is “decreases”. In addition, the “expression_or_secretion, percent_of_wt” value in data set [11] (control: WT corin) is reported as “decreases”.

B2: corin: sN1022Q (protein)
parent chain: MKQSPALAPEERCRRAGSPKPVLRADDNNMGNGCSQKLATANLLRFLLLVLIPCICALVLLLVILLSYVGTLQKVYFKSNGSEPLVTDGEIQGSDVILTNTIYNQSTVVSTAHPDQHVPAWTTDASLPGDQSHRNTSACMNITHSQCQMLPYHATLTPLLSVVRNMEMEKFLKFFTYLHRLSCYQHIMLFGCTLAFPECIIDGDDSHGLLPCRSFCEAAKEGCESVLGMVNYSWPDFLRCSQFRNQTESSNVSRICFSPQQENGKQLLCGRGENFLCASGICIPGKLQCNGYNDCDDWSDEAHCNCSENLFHCHTGKCLNYSLVCDGYDDCGDLSDEQNCDCNPTTEHRCGDGRCIAMEWVCDGDHDCVDKSDEVNCSCHSQGLVECRNGQCIPSTFQCDGDEDCKDGSDEENCSVIQTSCQEGDQRCLYNPCLDSCGGSSLCDPNNSLNNCSQCEPITLELCMNLPYNSTSYPNYFGHRTQKEASISWESSLFPALVQTNCYKYLMFFSCTILVPKCDVNTGEHIPPCRALCEHSKERCESVLGIVGLQWPEDTDCSQFPEENSDNQTCLMPDEYVEECSPSHFKCRSGQCVLASRRCDGQADCDDDSDEENCGCKERDLWECPSNKQCLKHTVICDGFPDCPDYMDEKNCSFCQDDELECANHACVSRDLWCDGEADCSDSSDEWDCVTLSINVNSSSFLMVHRAATEHHVCADGWQEILSQLACKQMGLGEPSVTKLIQEQEKEPRWLTLHSNWESLNGTTLHELLVNGQSCESRSKISLLCTKQDCGRRPAARMNKRILGGRTSRPGRWPWQCSLQSEPSGHICGCVLIAKKWVLTVAHCFEGRENAAVWKVVLGINNLDHPSVFMQTRFVKTIILHPRYSRAVVDYDISIVELSEDISETGYVRPVCLPNPEQWLEPDTYCYITGWGHMGNKMPFKLQEGEVRIISLEHCQSYFDMKTITTRMICAGYESGTVDSCMGDSGGPLVCEKPGGRWTLFGLTSWGSVCFSKVLGPGVYSNVSYFVEWIKRQIYIQTFLLN
B2: the expression_or_secretion entry in data set [12] (control: sWT (soluble corin)) is “no change”. For the same molecule, the “expression_or_secretion, percent_of_wt” value in data set [13] (control: sWT (soluble corin)) was “decreases”.

B3: corin: R801A/N1022Q (protein)
parent chain: MKQSPALAPEERCRRAGSPKPVLRADDNNMGNGCSQKLATANLLRFLLLVLIPCICALVLLLVILLSYVGTLQKVYFKSNGSEPLVTDGEIQGSDVILTNTIYNQSTVVSTAHPDQHVPAWTTDASLPGDQSHRNTSACMNITHSQCQMLPYHATLTPLLSVVRNMEMEKFLKFFTYLHRLSCYQHIMLFGCTLAFPECIIDGDDSHGLLPCRSFCEAAKEGCESVLGMVNYSWPDFLRCSQFRNQTESSNVSRICFSPQQENGKQLLCGRGENFLCASGICIPGKLQCNGYNDCDDWSDEAHCNCSENLFHCHTGKCLNYSLVCDGYDDCGDLSDEQNCDCNPTTEHRCGDGRCIAMEWVCDGDHDCVDKSDEVNCSCHSQGLVECRNGQCIPSTFQCDGDEDCKDGSDEENCSVIQTSCQEGDQRCLYNPCLDSCGGSSLCDPNNSLNNCSQCEPITLELCMNLPYNSTSYPNYFGHRTQKEASISWESSLFPALVQTNCYKYLMFFSCTILVPKCDVNTGEHIPPCRALCEHSKERCESVLGIVGLQWPEDTDCSQFPEENSDNQTCLMPDEYVEECSPSHFKCRSGQCVLASRRCDGQADCDDDSDEENCGCKERDLWECPSNKQCLKHTVICDGFPDCPDYMDEKNCSFCQDDELECANHACVSRDLWCDGEADCSDSSDEWDCVTLSINVNSSSFLMVHRAATEHHVCADGWQEILSQLACKQMGLGEPSVTKLIQEQEKEPRWLTLHSNWESLNGTTLHELLVNGQSCESRSKISLLCTKQDCGRRPAARMNKAILGGRTSRPGRWPWQCSLQSEPSGHICGCVLIAKKWVLTVAHCFEGRENAAVWKVVLGINNLDHPSVFMQTRFVKTIILHPRYSRAVVDYDISIVELSEDISETGYVRPVCLPNPEQWLEPDTYCYITGWGHMGNKMPFKLQEGEVRIISLEHCQSYFDMKTITTRMICAGYESGTVDSCMGDSGGPLVCEKPGGRWTLFGLTSWGSVCFSKVLGPGVYSNVSYFVEWIKRQIYIQTFLLN
Consider B3, for which the expression_or_secretion entry in [8] (control: R801A corin) is reported as “no change”. Moreover, the “expression_or_secretion, percent_of_wt” value in data set [11] (control: R801A corin) was “decreases”.

B4: corin: sR801A/N1022Q (protein)
parent chain: MKQSPALAPEERCRRAGSPKPVLRADDNNMGNGCSQKLATANLLRFLLLVLIPCICALVLLLVILLSYVGTLQKVYFKSNGSEPLVTDGEIQGSDVILTNTIYNQSTVVSTAHPDQHVPAWTTDASLPGDQSHRNTSACMNITHSQCQMLPYHATLTPLLSVVRNMEMEKFLKFFTYLHRLSCYQHIMLFGCTLAFPECIIDGDDSHGLLPCRSFCEAAKEGCESVLGMVNYSWPDFLRCSQFRNQTESSNVSRICFSPQQENGKQLLCGRGENFLCASGICIPGKLQCNGYNDCDDWSDEAHCNCSENLFHCHTGKCLNYSLVCDGYDDCGDLSDEQNCDCNPTTEHRCGDGRCIAMEWVCDGDHDCVDKSDEVNCSCHSQGLVECRNGQCIPSTFQCDGDEDCKDGSDEENCSVIQTSCQEGDQRCLYNPCLDSCGGSSLCDPNNSLNNCSQCEPITLELCMNLPYNSTSYPNYFGHRTQKEASISWESSLFPALVQTNCYKYLMFFSCTILVPKCDVNTGEHIPPCRALCEHSKERCESVLGIVGLQWPEDTDCSQFPEENSDNQTCLMPDEYVEECSPSHFKCRSGQCVLASRRCDGQADCDDDSDEENCGCKERDLWECPSNKQCLKHTVICDGFPDCPDYMDEKNCSFCQDDELECANHACVSRDLWCDGEADCSDSSDEWDCVTLSINVNSSSFLMVHRAATEHHVCADGWQEILSQLACKQMGLGEPSVTKLIQEQEKEPRWLTLHSNWESLNGTTLHELLVNGQSCESRSKISLLCTKQDCGRRPAARMNKRILGGRTSRPGRWPWQCSLQSEPSGHICGCVLIAKKWVLTVAHCFEGRENAAVWKVVLGINNLDHPSVFMQTRFVKTIILHPRYSRAVVDYDISIVELSEDISETGYVRPVCLPNPEQWLEPDTYCYITGWGHMGNKMPFKLQEGEVRIISLEHCQSYFDMKTITTRMICAGYESGTVDSCMGDSGGPLVCEKPGGRWTLFGLTSWGSVCFSKVLGPGVYSNVSYFVEWIKRQIYIQTFLLN
As for B4, the expression_or_secretion result in data set [12] (setting [16]) was “no change”. Further, in [13] (setting [16]), the “expression_or_secretion, percent_of_wt” value is listed as “decreases”.

B5: calnexin (natural protein)
chain: HDGHDDDVIDIEDDLDDVIEEVEDSKPDTTAPPSSPKVTYKAPVPTGEVYFADSFDRGTLSGWILSKAKKDDTDDEIAKYDGKWEVEEMKESKLPGDKGLVLMSRAKHHAISAKLNKPFLFDTKPLIVQYEVNFQNGIECGGAYVKLLSKTPELNLDQFHDKTPYTIMFGPDKCGEDYKLHFIFRHKNPKTGIYEEKHAKRPDADLKTYFTDKKTHLYTLILNPDNSFEILVDQSVVNSGNLLNDMTPPVNPSREIEDPEDRKPEDWDERPKIPDPEAVKPDDWDEDAPAKIPDEEATKPEGWLDDEPEYVPDPDAEKPEDWDEDMDGEWEAPQIANPRCESAPGCGVWQRPVIDNPNYKGKWKPPMIDNPSYQGIWKPRKIPNPDFFEDLEPFRMTPFSAIGLELWSMTSDIFFDNFIICADRRIVDDWANDGWGLKKAADGAAEPGVVGQMIEAAEERPWLWVVYILTVALPVFLVILFCCSGKKQTSGMEYKKTDAPQPDVKEEEEEKEEEKDKGDEEEEGEEKLEEKQKSDAEEDGGTVSQEEEDRKPKAEEDEILNRSPRNRKPRRE
B5 returned a co-precipitated level, percent of that with EK-WT in [14] of 165%. The co-precipitated level, percent of that with PT-WT in [15] is 171%.
